The subject of data set [1] is T1, L-AVP ((Arg8)-vasopressin) (Homo sapiens).
T1 sequence: CYFQNCPRG
In words: ITC. The following applies: L-RNA, hexaethylene glycol (PEG) spacer between Helix 2 and Helix 1, 37 C, 20 mM Tris pH 7.4, 150 mM NaCl, 5 mM KCl, 1 mM MgCl2, 1 mM CaCl2.

Data set [2] relates to T2, D-AVP (D-(Arg8)-vasopressin, all-D peptide) (Homo sapiens).
T2 sequence: CYFQNCPRG
In words: competition. The following applies: biotinylated D-AVP; selection buffer.

Another data set has as its target T3, L-oxytocin (UniProt P01178).
T3 sequence: CYIQNCPLG
In words: ITC. The following applies: L-RNA; hexaethylene glycol (PEG) spacer between Helix 2 and Helix 1; 3'-C6-amino 40 kDa PEG; 37 C; same buffer; activity 69.8%; about ten times lower affinity than ….

The results in this text go back to patent US20090181909.

As a reminder, the Kd is the concentration at which binding is half-saturated. A high value points to a looser complex.

Regarding “GGGGUAGGGCUUGGAUGGGUAGUACACGUGUGCGUGGU [CHF-F-037 spiegelmer]”, the Kd in data set [1] (activity 46.8%) worked out at 1.7 nM. As to “AGUGUGCGUGGUUAAUAAUGGGGUAGGGCUUGGAUGGGUAGUACACU [CHF-157-B4 (CHF-F-000)]”, the Kd in data set [2] is 9.5 nM.

“GGGGUAGGGCUUGGAUGGGUAGUACACGUGUGCGUGGU [CHF-F-037-3'PEG spiegelmer]”: the Kd in data set [1] (3'-C6-amino 40 kDa PEG, activity 59.1%) was 1.3 nM; with L-oxytocin, 16 nM.
